How the values were obtained:
[1] = target: T1, human integrin α5β1 on cells (endogenous, HUVEC; tumor or endothelial-expressed) (human, UniProt P08648 42-1049; P05556 21-798); experiment: cell-based or functional assay
[2] = target: T1, human integrin α5β1 on cells …; experiment: cell-based or functional assay; remark: listed apart in the source
[3] = target: T1, human integrin α5β1 on cells …; experiment: FACS on HUVEC (endogenous human α5β1), GeoMean against mAb concentration, fitted; experiment 030207
[4] = target: T1, human integrin α5β1 on cells …; experiment: FACS on HUVEC (endogenous human α5β1), GeoMean against mAb concentration, fitted; experiment 031307
Procedure: The 22B5/DLE, 24C7/DLE, 1 D9/DLE, and 2D2/DLE antibodies were tested for their binding affinity to cell surface integrin α5 using a FACS assay, employing endogenous human integrin α5β1 expressing cells (HUVEC). Briefly, the cells were detached using trypsin-EDTA and washed with cold PBS. After being aliquoted into 96-well plates, the cells were blocked by serum and incubated with different concentrations of specific mAb for 1 hour at 4° C. Subsequently, the cells were washed and incubated with an anti-human κ secondary antibody conjugated with the R-PE fluorophore and analyzed using a FACSCalibur flow cytometer. 10,000 events were collected for each sample without applying any gating. For KD determination, the Geometric Mean of each sample histogram was calculated and plotted as a function of the mAb concentration. KD was calculated after fitting to a two-state equilibrium model.

T1 sequence (P08648 42-1049, chain 1 of 2): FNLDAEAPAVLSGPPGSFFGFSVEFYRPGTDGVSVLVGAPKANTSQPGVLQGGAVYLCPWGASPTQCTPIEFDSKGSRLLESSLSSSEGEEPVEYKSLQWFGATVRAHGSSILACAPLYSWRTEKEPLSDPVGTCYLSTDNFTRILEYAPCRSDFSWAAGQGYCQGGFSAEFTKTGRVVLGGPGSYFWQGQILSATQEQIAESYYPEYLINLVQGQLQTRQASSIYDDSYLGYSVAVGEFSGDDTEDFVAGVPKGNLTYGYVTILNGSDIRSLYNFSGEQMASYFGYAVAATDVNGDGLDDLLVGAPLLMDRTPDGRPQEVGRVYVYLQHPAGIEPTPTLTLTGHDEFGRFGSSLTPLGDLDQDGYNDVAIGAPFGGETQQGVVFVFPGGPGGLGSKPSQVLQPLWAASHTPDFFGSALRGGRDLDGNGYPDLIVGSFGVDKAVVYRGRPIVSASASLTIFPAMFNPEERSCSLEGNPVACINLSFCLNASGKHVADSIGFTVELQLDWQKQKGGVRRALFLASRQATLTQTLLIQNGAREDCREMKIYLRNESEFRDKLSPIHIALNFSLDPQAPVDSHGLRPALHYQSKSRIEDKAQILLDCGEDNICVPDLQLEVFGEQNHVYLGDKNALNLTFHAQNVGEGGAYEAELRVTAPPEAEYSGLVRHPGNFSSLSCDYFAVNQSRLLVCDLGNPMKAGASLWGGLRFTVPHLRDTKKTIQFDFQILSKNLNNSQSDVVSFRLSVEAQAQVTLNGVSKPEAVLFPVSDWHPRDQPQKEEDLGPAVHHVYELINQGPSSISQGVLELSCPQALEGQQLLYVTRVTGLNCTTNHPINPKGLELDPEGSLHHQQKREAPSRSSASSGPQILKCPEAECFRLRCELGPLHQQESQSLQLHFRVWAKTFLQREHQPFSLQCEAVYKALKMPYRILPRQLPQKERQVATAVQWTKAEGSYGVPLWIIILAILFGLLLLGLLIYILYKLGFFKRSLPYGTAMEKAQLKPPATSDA
T1 sequence (P05556 21-798, chain 2 of 2): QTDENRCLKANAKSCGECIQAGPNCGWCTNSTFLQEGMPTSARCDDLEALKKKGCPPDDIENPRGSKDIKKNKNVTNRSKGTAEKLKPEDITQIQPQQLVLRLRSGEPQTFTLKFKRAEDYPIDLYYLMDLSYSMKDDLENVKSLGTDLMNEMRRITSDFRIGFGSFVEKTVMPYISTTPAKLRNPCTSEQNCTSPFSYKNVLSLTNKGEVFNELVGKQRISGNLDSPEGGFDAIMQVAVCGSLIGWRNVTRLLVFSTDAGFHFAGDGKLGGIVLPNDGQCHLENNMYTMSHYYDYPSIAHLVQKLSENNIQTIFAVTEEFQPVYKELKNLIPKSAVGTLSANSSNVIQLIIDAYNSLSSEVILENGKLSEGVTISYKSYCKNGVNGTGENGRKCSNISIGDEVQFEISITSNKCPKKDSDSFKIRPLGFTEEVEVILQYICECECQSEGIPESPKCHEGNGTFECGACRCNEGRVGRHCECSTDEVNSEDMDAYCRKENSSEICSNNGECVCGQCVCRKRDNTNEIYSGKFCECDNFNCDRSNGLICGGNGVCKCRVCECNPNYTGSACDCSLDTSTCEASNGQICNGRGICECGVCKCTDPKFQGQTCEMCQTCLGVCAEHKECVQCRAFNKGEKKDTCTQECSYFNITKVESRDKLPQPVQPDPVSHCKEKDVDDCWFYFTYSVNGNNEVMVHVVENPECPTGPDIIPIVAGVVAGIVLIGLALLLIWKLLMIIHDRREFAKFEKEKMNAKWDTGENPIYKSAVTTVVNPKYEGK

| Binder | ADCC EC50, human PBMCs [1] [nM] | IC50, inhibition of HUVEC adhesion to fibronectin (fluorescence 485/535 nM) [2] [nM] | Kd [3] [nM] | Kd [4] [nM] |
| --- | --- | --- | --- | --- |
| 22B5 wild type IgG1 (antibody, V domains shown, Human IgG1 with wild type Fc (no DLE mutations); also called 22B5 wt IgG1; wt 22B5 IgG1) VH: QLQLQESGPGLVKPSETLSLTCTVSGGSISSSSYWGWIRQPPGKGLEWIGSIYYSGRNYNNPSLKSRVTISVDTSKNQFSLKLSSVTAADTAVYYCARHYYGSGSSYYYYDLDVWGQGTTVTVSS VL: EIVLTQSPATLSLSPGERATLSCRASQSVSSYLAWYQQKPGQAPRLLIYDASNRATGIPARFSGSGSGTDFTLTISSLEPEDFAVYYCQQRSNWPLTFGGGTKVEIK | 0.23 | 0.43 | 1.95 | – |
| 22B5 IgG2 (antibody, V domains shown) VH: QLQLQESGPGLVKPSETLSLTCTVSGGSISSSSYWGWIRQPPGKGLEWIGSIYYSGRNYNNPSLKSRVTISVDTSKNQFSLKLSSVTAADTAVYYCARHYYGSGSSYYYYDLDVWGQGTTVTVSS VL: EIVLTQSPATLSLSPGERATLSCRASQSVSSYLAWYQQKPGQAPRLLIYDASNRATGIPARFSGSGSGTDFTLTISSLEPEDFAVYYCQQRSNWPLTFGGGTKVEIK | – | 0.37 | – | – |
| 22B5 IgG4 (antibody, V domains shown) VH: QLQLQESGPGLVKPSETLSLTCTVSGGSISSSSYWGWIRQPPGKGLEWIGSIYYSGRNYNNPSLKSRVTISVDTSKNQFSLKLSSVTAADTAVYYCARHYYGSGSSYYYYDLDVWGQGTTVTVSS VL: EIVLTQSPATLSLSPGERATLSCRASQSVSSYLAWYQQKPGQAPRLLIYDASNRATGIPARFSGSGSGTDFTLTISSLEPEDFAVYYCQQRSNWPLTFGGGTKVEIK | – | 0.57 | – | – |
| 2D2/DLE (antibody, IgG1, V domains shown, Constant regions: see the note of 1D9/DLE; also called 2D2 IgG1 DLE) VH: QVQLVESGGGVVQPGRSLRLSCAASGFTFSSYAMHWVRQAPGKGLEWVAVISFDGSTKYYADSVKGRFTISRDNSKNTLDLQMNSLRAEDTALYYCAREYWGTYYYGTDVWGQGTTVIVSS VL: EIVLTQSPATLSLSPGERATLSCRASQSVNSYLAWYQQKPGQAPRLLIYDASNRATGIPARFSGSGSGTDFTLTISSLEPEDFAVYYCQQRSNWPRTFGQGTKVEIK | – | – | 8.78 | 7.32 |

The next lines start with the values.

| ADCC EC50, human PBMCs [1] [nM] | IC50, inhibition of HUVEC adhesion to fibronectin (fluorescence 485/535 nM) [2] [nM] | Kd [3] [nM] | Kd [4] [nM] | Binder |
| --- | --- | --- | --- | --- |
| – | – | 1.69 | – | 1D9 (antibody, IgG1, V domains shown, also called 1D9 G1; I D9) VH: QVQLVESGGGVVQPGRSLRLSCAASGFPFSTYAMHWVRQAPGKGLEWVAVISYDGSNKYYADSVKGRFTISRDNSKNTLYLQMNSLRAEDTAVYYCARESPPIYYYYGMDVWGQGTTVTVSS VL: EIVLTQSPATLSLSPGERATLSCRASQSVSSYLAWYQQKPGQAPRLLIYDASNRATGIPARFSGSGSGTDFTLTISSLEPEDFAVYYCQQRSNWPRTFGQGTKVEIK |
| – | – | 1.68 | 1.49 | 1D9/DLE (antibody, V domains shown, also called 1D9 IgG1 DLE; 1D9 G1 DLE) VH: QVQLVESGGGVVQPGRSLRLSCAASGFPFSTYAMHWVRQAPGKGLEWVAVISYDGSNKYYADSVKGRFTISRDNSKNTLYLQMNSLRAEDTAVYYCARESPPIYYYYGMDVWGQGTTVTVSS VL: EIVLTQSPATLSLSPGERATLSCRASQSVSSYLAWYQQKPGQAPRLLIYDASNRATGIPARFSGSGSGTDFTLTISSLEPEDFAVYYCQQRSNWPRTFGQGTKVEIK |
